In the Human Domainome abundance scans (Beltran et al. 2025) one finds abundance fitness data, which are given here for 46 substances.

± gives the uncertainty stated by the source.

The data set is described as follows: abundance fitness (aPCA) (normalised: wild type 0, dead -1); higher = more abundant; growth selection in yeast, the domain comes from the species named. The note with it: Homo sapiens.
The substance “Lipoamide acyltransferase component of branched-chain alpha-keto acid dehydrogenase complex, mitochondrial L209K, P11182” registered an abundance fitness of 0.079 ± 0.087. Turning to “Lipoamide acyltransferase component of branched-chain alpha-keto acid dehydrogenase complex, mitochondrial L209N, P11182”, the abundance fitness is -0.138 ± 0.073. The result for “Lipoamide acyltransferase component of branched-chain alpha-keto acid dehydrogenase complex, mitochondrial L209P, P11182” reads -0.226 ± 0.051. On to “Lipoamide acyltransferase component of branched-chain alpha-keto acid dehydrogenase complex, mitochondrial L209Q, P11182”, for which the abundance fitness is -0.072 ± 0.043. For the substance “Lipoamide acyltransferase component of branched-chain alpha-keto acid dehydrogenase complex, mitochondrial L209R, P11182”, the abundance fitness was determined as 0.006 ± 0.036.

In turn, “Lipoamide acyltransferase component of branched-chain alpha-keto acid dehydrogenase complex, mitochondrial L209S, P11182” registered an abundance fitness of -0.026 ± 0.041. “Lipoamide acyltransferase component of branched-chain alpha-keto acid dehydrogenase complex, mitochondrial L209T, P11182” registered an abundance fitness of -0.131 ± 0.058. Substance “Lipoamide acyltransferase component of branched-chain alpha-keto acid dehydrogenase complex, mitochondrial L209V, P11182” returned an abundance fitness of 0.006 ± 0.039. Substance “Lipoamide acyltransferase component of branched-chain alpha-keto acid dehydrogenase complex, mitochondrial L209W, P11182” returned an abundance fitness of -0.27 ± 0.047. “Lipoamide acyltransferase component of branched-chain alpha-keto acid dehydrogenase complex, mitochondrial L209Y, P11182” yielded an abundance fitness of -0.232 ± 0.087. Substance “Lipoamide acyltransferase component of branched-chain alpha-keto acid dehydrogenase complex, mitochondrial M182A, P11182” had an abundance fitness of 0.018 ± 0.072. The result for “Lipoamide acyltransferase component of branched-chain alpha-keto acid dehydrogenase complex, mitochondrial M182C, P11182” reads -0.478 ± 0.12; that for “Lipoamide acyltransferase component of branched-chain alpha-keto acid dehydrogenase complex, mitochondrial M182I, P11182”, -0.408 ± 0.24; that for “Lipoamide acyltransferase component of branched-chain alpha-keto acid dehydrogenase complex, mitochondrial M182T, P11182”, -0.173 ± 0.075. Turning to “Lipoamide acyltransferase component of branched-chain alpha-keto acid dehydrogenase complex, mitochondrial N184E, P11182”, the abundance fitness was -0.859 ± 0.39. On to “Lipoamide acyltransferase component of branched-chain alpha-keto acid dehydrogenase complex, mitochondrial N184G, P11182”, for which the abundance fitness is -0.294 ± 0.093. For the substance “Lipoamide acyltransferase component of branched-chain alpha-keto acid dehydrogenase complex, mitochondrial N184L, P11182”, the abundance fitness was -0.325 ± 0.11. The substance “Lipoamide acyltransferase component of branched-chain alpha-keto acid dehydrogenase complex, mitochondrial N184P, P11182” returned an abundance fitness of -1.08 ± 0.4. Then “Lipoamide acyltransferase component of branched-chain alpha-keto acid dehydrogenase complex, mitochondrial N184Q, P11182”, with -0.16 ± 0.1. “Lipoamide acyltransferase component of branched-chain alpha-keto acid dehydrogenase complex, mitochondrial N184R, P11182” came in with an abundance fitness of -0.097 ± 0.072.

On to “Lipoamide acyltransferase component of branched-chain alpha-keto acid dehydrogenase complex, mitochondrial N184S, P11182”, for which the abundance fitness is 0.168 ± 0.38. The result for “Lipoamide acyltransferase component of branched-chain alpha-keto acid dehydrogenase complex, mitochondrial N184W, P11182” reads -0.179 ± 0.1; that for “Lipoamide acyltransferase component of branched-chain alpha-keto acid dehydrogenase complex, mitochondrial N185A, P11182”, -0.21 ± 0.074; that for “Lipoamide acyltransferase component of branched-chain alpha-keto acid dehydrogenase complex, mitochondrial N185D, P11182”, -0.178 ± 0.092. “Lipoamide acyltransferase component of branched-chain alpha-keto acid dehydrogenase complex, mitochondrial N185E, P11182” yielded an abundance fitness of -0.09 ± 0.086. Regarding “Lipoamide acyltransferase component of branched-chain alpha-keto acid dehydrogenase complex, mitochondrial N185H, P11182”, the abundance fitness was -0.164 ± 0.16. As to “Lipoamide acyltransferase component of branched-chain alpha-keto acid dehydrogenase complex, mitochondrial N185I, P11182”, the abundance fitness is -0.83 ± 0.09.

In turn, “Lipoamide acyltransferase component of branched-chain alpha-keto acid dehydrogenase complex, mitochondrial N185K, P11182” had an abundance fitness of 0.016 ± 0.1.

On to “Lipoamide acyltransferase component of branched-chain alpha-keto acid dehydrogenase complex, mitochondrial N185L, P11182”, for which the abundance fitness is -0.514 ± 0.26. For the substance “Lipoamide acyltransferase component of branched-chain alpha-keto acid dehydrogenase complex, mitochondrial N185M, P11182”, the abundance fitness is -0.273 ± 0.18.

“Lipoamide acyltransferase component of branched-chain alpha-keto acid dehydrogenase complex, mitochondrial N185P, P11182” returned an abundance fitness of -1.01 ± 0.17. On to “Lipoamide acyltransferase component of branched-chain alpha-keto acid dehydrogenase complex, mitochondrial N185Q, P11182”, for which the abundance fitness was -0.155 ± 0.11.

The substance “Lipoamide acyltransferase component of branched-chain alpha-keto acid dehydrogenase complex, mitochondrial N185R, P11182” yielded an abundance fitness of -0.165 ± 0.1.

The substance “Lipoamide acyltransferase component of branched-chain alpha-keto acid dehydrogenase complex, mitochondrial N185V, P11182” gave an abundance fitness of -0.744 ± 0.1.

“Lipoamide acyltransferase component of branched-chain alpha-keto acid dehydrogenase complex, mitochondrial N185W, P11182” displayed an abundance fitness of -0.688 ± 0.16. Turning to “Lipoamide acyltransferase component of branched-chain alpha-keto acid dehydrogenase complex, mitochondrial N207A, P11182”, the abundance fitness stood at 0.034 ± 0.04. As for “Lipoamide acyltransferase component of branched-chain alpha-keto acid dehydrogenase complex, mitochondrial N207C, P11182”, the abundance fitness was -0.302 ± 0.1. Take “Lipoamide acyltransferase component of branched-chain alpha-keto acid dehydrogenase complex, mitochondrial N207D, P11182”: the abundance fitness is -0.009 ± 0.049. “Lipoamide acyltransferase component of branched-chain alpha-keto acid dehydrogenase complex, mitochondrial N207E, P11182” came in with an abundance fitness of -0.043 ± 0.047.

In turn, “Lipoamide acyltransferase component of branched-chain alpha-keto acid dehydrogenase complex, mitochondrial N207F, P11182” displayed an abundance fitness of -0.339 ± 0.091. Substance “Lipoamide acyltransferase component of branched-chain alpha-keto acid dehydrogenase complex, mitochondrial N207G, P11182” had an abundance fitness of -0.03 ± 0.042.

With “Lipoamide acyltransferase component of branched-chain alpha-keto acid dehydrogenase complex, mitochondrial N207I, P11182”, the abundance fitness was -0.261 ± 0.14. For “Lipoamide acyltransferase component of branched-chain alpha-keto acid dehydrogenase complex, mitochondrial N207L, P11182”, the abundance fitness is -0.048 ± 0.048. In the case of “Lipoamide acyltransferase component of branched-chain alpha-keto acid dehydrogenase complex, mitochondrial N207P, P11182”, the abundance fitness was -0.199 ± 0.051. On to “Lipoamide acyltransferase component of branched-chain alpha-keto acid dehydrogenase complex, mitochondrial N207Q, P11182”, for which the abundance fitness is 0.035 ± 0.066. “Lipoamide acyltransferase component of branched-chain alpha-keto acid dehydrogenase complex, mitochondrial N207S, P11182” had an abundance fitness of -0.017 ± 0.044.
